One assay concerns mouse host HFs. Description: Human occipital scalp HF-on-SCID mouse xenograft model, adjacent mouse host HFs. The class given is in vivo. The settings on record: three daily doses on post-grafting day 30; counted on post-grafting day 50; compared to BSA (n=5), rhSCUBE3 n=6. The text has this: (§1) FIGS. 2A-2I. SCUBE3 induces hair growth. (2A) Expression of pan-isoform Scube3 mRNA in dorsal mouse skin at indicated postnatal time points. (2B) Time course analysis of dorsal hair growth patterns in representative control (top) and Scube3^−/− mice (bottom) between days P24-30. Mice were shaved before each round of photography. (2C) Representative images of microinjection sites for BSA (top) and rhSCUBE3 (bottom). Affi-gel blue agarose beads are visible. Newly growing anagen HFs are pigmented. (2D) Quantification of induced anagen HFs in response to rhSCUBE3 on day 14. n=7; *** P<0.0002. (2E) Representative images of microinjection sites for BSA (left) and rhSCUBE3 (right) on 20-month-old mice. Affi-gel blue agarose beads are visible. Newly growing anagen HFs are pigmented. (2F) Quantification of induced anagen HFs in aged mice on day 14 after protein injection. n=9; * P<0.0001. (2G) Expression of K14, KI67 and SCUBE3 mRNA in human anagen occipital scalp HF. […] (2I) Scattered plot of human and mouse anagen HF quantification. […]
(§2) To start evaluating the translational potential of SCUBE3, first we examined its expression pattern in human anagen HFs from occipital scalp of volunteer donors, undergoing autologous hair transplantation procedures. […] Anagen phase human and adjacent mouse host HFs were then counted at each injection site on post-grafting day 50. […]
(In xenograft studies the graft and the host belong to different species.)

In assay [1] the test system is grafted human occipital scalp HFs. Put plainly: Human occipital scalp HF-on-SCID mouse xenograft model, grafted human HFs. The following applies: three daily doses on post-grafting day 30; counted on post-grafting day 50; compared to BSA (n=5), rhSCUBE3 n=6. The class given is in vivo.
Excerpt: as §1, §2

Assay [2] has as its system anagen HFs. Put plainly: Intradermal microinjection of protein in mice starting at P48, induced anagen HFs counted on day 14. The class given is in vivo, mouse. The following applies: intradermally microinjected for four days starting at P48; compared on day 14 to BSA; n=7. The text has this:
(§3) FIGS. 2A-2I. SCUBE3 induces hair growth. (2A) Expression of pan-isoform Scube3 mRNA in dorsal mouse skin at indicated postnatal time points. (2B) Time course analysis of dorsal hair growth patterns in representative control (top) and Scube3^−/− mice (bottom) between days P24-30. Mice were shaved before each round of photography. (2C) Representative images of microinjection sites for BSA (top) and rhSCUBE3 (bottom). Affi-gel blue agarose beads are visible. Newly growing anagen HFs are pigmented. (2D) Quantification of induced anagen HFs in response to rhSCUBE3 on day 14. n=7; *** P<0.0002. (2E) Representative images of microinjection sites for BSA (left) and rhSCUBE3 (right) on 20-month-old mice. Affi-gel blue agarose beads are visible. Newly growing anagen HFs are pigmented. (2F) Quantification of induced anagen HFs in aged mice on day 14 after protein injection. n=9; * P<0.0001. (2G) Expression of K14, KI67 and SCUBE3 mRNA in human anagen occipital scalp HF. SCUBE3 mRNA is specifically and highly expressed in DP and adjacent dermal sheath cup. (2H) Representative images of microinjection sites for BSA and rhSCUBE3 in human occipital scalp HF-on-SCID mouse xenograft model. (2I) Scattered plot of human and mouse anagen HF quantification. Striped dots represent rhSCUBE3-injected samples and solid dots represent BSA-injected samples. Tissue sections were counterstained with DAPI in 2A, 2G. […]

Assay [3] relates to anagen HFs. Description: Intradermal protein microinjection in aged mice over 20 months of age, induced anagen HFs on day 14. The class given is in vivo, mouse. The following applies: day 14 after protein injection, n=9.
Excerpt: as §3

B1: rhSCUBE3: recombinant human SCUBE3 (Signal Peptide, CUB Domain And EGF Like Domain Containing 3) protein (protein, listed as Homo sapiens)
chain: CGGELGEFTGYIESPNYPGNYPAGVECIWNINPPPKRKILIVVPEIFLPSEDECGDVLVMRKNSSPSSITTYETCQTYERPIAFTARSRKLWINFKTSEANSARGFQIPYVTYDEDYEQLVEDIVRDGRLYASENHQEILKDKKLIKAFFEVLAHPQNYFKYTEKHKEMLPKSFIKLLRSKVSSFLRPYK
On to B1, for which the “new anagen of mouse host HFs” value with mouse host HFs is “stimulated new anagen of mouse host HFs”. Further, in assay [1], the “anagen entry of grafted human HFs” value is “accelerated anagen entry of grafted human HFs”. For the same molecule, the “new hair growth (induced anagen HFs), mean difference compared to BSA” value with anagen HFs [2] is 18+/−3.44. Also, the “new hair growth at the injection sites (induced anagen HFs), mean difference vs BSA” value with anagen HFs [3] is 31.78+/−2.40.

(Values after patent US20250295571A1, “COMPOSITIONS AND METHODS FOR STIMULATION OF HAIR GROWTH” (THE REGENTS OF THE UNIVERSITY OF CALIFORNIA, priority 2022, published 2025).)
